The supplement of paper PMC7877785
± gives the uncertainty stated by the source.

Test: self-splicing fitness, log relative to wild type (ln ratio); higher = more splicing; Tetrahymena group I intron in knt gene, E. coli kanamycin selection, DiMSum; sequences stand for … in CUCUCU…GGAGGGAAAAGUUAUCAGGCAUGCACCUGGUAGCUAGUCUUUAAACCAAUAGAUUGCAUCGGUUUAAAAGGCAAGACCGUCAAAUUGCGGGAAAGGGGUCAACAGCCGUUCAGUACCAAGUCUCAGGGGAAACUUUGAGAUGGCCUUGCAAAGGGUAUGGUAAUAAGCUGACGGACAUGGUCCUAACCACGCAGCCAAGUCCUAAGUCAACAGAUCUUCUGUUGAUAUGGAUGCAGUUCACAGACUAAAUGUCGGUCGGGGAAGAUGUAUUCUUCUCAUAAGAUAUAGUCGGACCUCUCCUUAAUGGGAGCUAGCGGAUGAAGUGAUGCAACACUGGAGCCGCUGGGAACUAAUUUGUAUGCGAAAGUAUAUUGAUUAGUUUUGGAGUACUCGUGGUCG
How it was run: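 Library with all eight P1ex-region intron nucleotides randomised, intron inside the knt kanamycin-resistance gene on pET-22b(+), in E. coli BL21(DE3). Cells grew overnight at 37°C or 30°C on LB agar with or without 25 μg/mL kanamycin (plus 100 μg/mL carbenicillin, 50 μM IPTG, 0.2% rhamnose), in six replicate transformations. Pooled colonies were amplicon-sequenced on Illumina HiSeq 2500. DiMSum fitness is the error-weighted combination of wild-type-normalised replicate fold changes, kanamycin versus none.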

With CACGAGCAAUAUUACGUCAG the “self-splicing fitness (ln)” value (30 °C) was -3.42 ± 0.13 and the “self-splicing fitness (ln)” value (37 °C) was -2.32 ± 0.11.

For UUUGAGCAAUAUUACGGGGC, the “self-splicing fitness (ln)” value (37 °C) was -2.07 ± 0.45.

In the case of GAGUAGCAAUAUUACGGAGC, the “self-splicing fitness (ln)” value (30 °C) is reported as -2.75 ± 0.23 and the “self-splicing fitness (ln)” value (37 °C) is reported as -1.8 ± 0.27.

With AAUGAGCAAUAUUACGUGGG the “self-splicing fitness (ln)” value (30 °C) was -4.39 ± 0.36 and the “self-splicing fitness (ln)” value (37 °C) was -2.87 ± 0.21.

For GACGAGCAAUAUUACGUCCG, the “self-splicing fitness (ln)” value (30 °C) was -3.22 ± 0.27 and the “self-splicing fitness (ln)” value (37 °C) was -2.69 ± 0.36.

In the case of CGCUAGCAAUAUUACGCAUU, the “self-splicing fitness (ln)” value (30 °C) is reported as -3.69 ± 0.28 and the “self-splicing fitness (ln)” value (37 °C) is reported as -2.04 ± 0.27.

With ACGUAGCAAUAUUACGGAAA the “self-splicing fitness (ln)” value (30 °C) was -2.27 ± 0.4 and the “self-splicing fitness (ln)” value (37 °C) was -1.94 ± 0.33.

For AGCCAGCAAUAUUACGCAAC, the “self-splicing fitness (ln)” value (30 °C) was -4.16 ± 0.32 and the “self-splicing fitness (ln)” value (37 °C) was -1.4 ± 0.23.

For GGUCAGCAAUAUUACGGAGU, the “self-splicing fitness (ln)” value (30 °C) was -0.947 ± 0.086 and the “self-splicing fitness (ln)” value (37 °C) was 0.0968 ± 0.12.

In the case of GUAGAGCAAUAUUACGACAU, the “self-splicing fitness (ln)” value (30 °C) is reported as 0.278 ± 0.014 and the “self-splicing fitness (ln)” value (37 °C) is reported as 0.459 ± 0.033.

For AGUGAGCAAUAUUACGUCUA, the “self-splicing fitness (ln)” value (30 °C) was -2.45 ± 0.27 and the “self-splicing fitness (ln)” value (37 °C) was -1.41 ± 0.2.

In the case of AUACAGCAAUAUUACGCAUU, the “self-splicing fitness (ln)” value (30 °C) is reported as -1.85 ± 0.088 and the “self-splicing fitness (ln)” value (37 °C) is reported as -1.4 ± 0.11.

For CACGAGCAAUAUUACGGGGG, the “self-splicing fitness (ln)” value (30 °C) was -3.04 ± 0.19 and the “self-splicing fitness (ln)” value (37 °C) was -2.52 ± 0.25.

In the case of ACCGAGCAAUAUUACGGAGC, the “self-splicing fitness (ln)” value (30 °C) is reported as -3.33 ± 0.18 and the “self-splicing fitness (ln)” value (37 °C) is reported as -1.73 ± 0.13.

With ACACAGCAAUAUUACGCACC the “self-splicing fitness (ln)” value (30 °C) was -0.476 ± 0.09 and the “self-splicing fitness (ln)” value (37 °C) was -0.151 ± 0.11.

With GUAUAGCAAUAUUACGUGCC the “self-splicing fitness (ln)” value (30 °C) was -3.23 ± 0.34 and the “self-splicing fitness (ln)” value (37 °C) was -2.54 ± 0.31.

For GUCCAGCAAUAUUACGGUUC, the “self-splicing fitness (ln)” value (30 °C) was -0.386 ± 0.049 and the “self-splicing fitness (ln)” value (37 °C) was 0.219 ± 0.065.

In the case of GGUCAGCAAUAUUACGUCUC, the “self-splicing fitness (ln)” value (30 °C) is reported as 0.385 ± 0.17 and the “self-splicing fitness (ln)” value (37 °C) is reported as -0.113 ± 0.15.

For CACGAGCAAUAUUACGGCAA, the “self-splicing fitness (ln)” value (30 °C) was -3.69 ± 0.27 and the “self-splicing fitness (ln)” value (37 °C) was -2.09 ± 0.14.

For AACCAGCAAUAUUACGAUUA, the “self-splicing fitness (ln)” value (30 °C) was -0.368 ± 0.056 and the “self-splicing fitness (ln)” value (37 °C) was -0.164 ± 0.067.

In the case of GUAAAGCAAUAUUACGCGUA, the “self-splicing fitness (ln)” value (30 °C) is reported as -1.25 ± 0.094 and the “self-splicing fitness (ln)” value (37 °C) is reported as -0.105 ± 0.12.

In the case of UGGAAGCAAUAUUACGAUGA, the “self-splicing fitness (ln)” value (30 °C) is reported as -0.768 ± 0.18 and the “self-splicing fitness (ln)” value (37 °C) is reported as -0.0449 ± 0.17.

For CGUGAGCAAUAUUACGGCGC, the “self-splicing fitness (ln)” value (30 °C) was -3.69 ± 0.34 and the “self-splicing fitness (ln)” value (37 °C) was -2.43 ± 0.37.

For AAGAAGCAAUAUUACGACGC, the “self-splicing fitness (ln)” value (30 °C) was -0.655 ± 0.12 and the “self-splicing fitness (ln)” value (37 °C) was -0.0572 ± 0.17.

With UGUCAGCAAUAUUACGUAAU the “self-splicing fitness (ln)” value (30 °C) was -1.03 ± 0.08 and the “self-splicing fitness (ln)” value (37 °C) was -0.593 ± 0.089.

In the case of AAGAAGCAAUAUUACGCGCC, the “self-splicing fitness (ln)” value (30 °C) is reported as -0.652 ± 0.13 and the “self-splicing fitness (ln)” value (37 °C) is reported as -0.664 ± 0.2.

For AACUAGCAAUAUUACGUCCU, the “self-splicing fitness (ln)” value (30 °C) was -0.111 ± 0.092 and the “self-splicing fitness (ln)” value (37 °C) was 1.04 ± 0.12.

With CUGCAGCAAUAUUACGAACG the “self-splicing fitness (ln)” value (30 °C) was 0.237 ± 0.087 and the “self-splicing fitness (ln)” value (37 °C) was -0.269 ± 0.08.

With AGCGAGCAAUAUUACGUCUA the “self-splicing fitness (ln)” value (30 °C) was -1.92 ± 0.13 and the “self-splicing fitness (ln)” value (37 °C) was -2 ± 0.11.

For AAACAGCAAUAUUACGUUAA, the “self-splicing fitness (ln)” value (30 °C) was -2.66 ± 0.11 and the “self-splicing fitness (ln)” value (37 °C) was -0.816 ± 0.092.

For GGUUAGCAAUAUUACGCCUA, the “self-splicing fitness (ln)” value (30 °C) was 0.0795 ± 0.32 and the “self-splicing fitness (ln)” value (37 °C) was -1.32 ± 0.25.

For CCAAAGCAAUAUUACGUGUU, the “self-splicing fitness (ln)” value (30 °C) was -3.49 ± 0.11 and the “self-splicing fitness (ln)” value (37 °C) was -1.56 ± 0.09.

For AUUAAGCAAUAUUACGAGGA, the “self-splicing fitness (ln)” value (30 °C) was -3.01 ± 0.28 and the “self-splicing fitness (ln)” value (37 °C) was -0.871 ± 0.19.

For UUUUAGCAAUAUUACGAUCA, the “self-splicing fitness (ln)” value (30 °C) was -0.641 ± 0.15 and the “self-splicing fitness (ln)” value (37 °C) was -0.391 ± 0.17.

In the case of CGAUAGCAAUAUUACGCCCC, the “self-splicing fitness (ln)” value (30 °C) is reported as -1.99 ± 0.29 and the “self-splicing fitness (ln)” value (37 °C) is reported as -0.838 ± 0.29.

In the case of AACUAGCAAUAUUACGACUC, the “self-splicing fitness (ln)” value (30 °C) is reported as -0.19 ± 0.057 and the “self-splicing fitness (ln)” value (37 °C) is reported as 0.0401 ± 0.079.

In the case of ACAAAGCAAUAUUACGGACC, the “self-splicing fitness (ln)” value (30 °C) is reported as -1.02 ± 0.1 and the “self-splicing fitness (ln)” value (37 °C) is reported as -1.5 ± 0.15.

For GCGCAGCAAUAUUACGCAGU, the “self-splicing fitness (ln)” value (30 °C) was -2.63 ± 0.31 and the “self-splicing fitness (ln)” value (37 °C) was -1.04 ± 0.29.
